Source: patent publication US20140356285A1, “COMPOSITIONS AND METHODS RELATED TO TISSUE TARGETING” (THE BOARD OF REGENTS OF THE UNIVERSITY OF TEXAS SYSTEM, priority 2011, published 2014)
No end group written: not given here. *: point of attachment. Biotin = O=C1N[C@H]2[C@H](CS[C@H]2CCCCC(=O)*)N1

T1: prohibitin (Homo sapiens, UniProt P35232)
T1 construct: gift from Dr. Srikumar Chellappan (H. Lee Moffitt Cancer Center & Research Institute)
T1 sequence (P35232 1-272): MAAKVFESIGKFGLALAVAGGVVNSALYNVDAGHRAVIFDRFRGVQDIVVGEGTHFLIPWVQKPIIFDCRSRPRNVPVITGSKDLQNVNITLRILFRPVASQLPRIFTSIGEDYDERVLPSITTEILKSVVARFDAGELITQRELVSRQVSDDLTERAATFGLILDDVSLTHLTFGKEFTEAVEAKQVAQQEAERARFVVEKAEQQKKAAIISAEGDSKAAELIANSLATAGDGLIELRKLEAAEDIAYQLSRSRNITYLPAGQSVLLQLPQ

T2: PR-3 (Homo sapiens, UniProt P24158)
T2 construct: purchased Sigma
T2 sequence (P24158 28-248 limits assumed): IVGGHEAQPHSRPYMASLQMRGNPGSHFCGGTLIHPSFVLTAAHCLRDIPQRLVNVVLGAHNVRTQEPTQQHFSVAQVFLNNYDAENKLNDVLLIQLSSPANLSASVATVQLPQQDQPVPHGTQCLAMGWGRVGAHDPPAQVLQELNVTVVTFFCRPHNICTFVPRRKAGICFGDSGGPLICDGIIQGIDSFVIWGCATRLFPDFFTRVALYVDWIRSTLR

T3: ANXAS (Homo sapiens, UniProt P08758)
T3 construct: purchased AmProx
T3 sequence (P08758 1-320): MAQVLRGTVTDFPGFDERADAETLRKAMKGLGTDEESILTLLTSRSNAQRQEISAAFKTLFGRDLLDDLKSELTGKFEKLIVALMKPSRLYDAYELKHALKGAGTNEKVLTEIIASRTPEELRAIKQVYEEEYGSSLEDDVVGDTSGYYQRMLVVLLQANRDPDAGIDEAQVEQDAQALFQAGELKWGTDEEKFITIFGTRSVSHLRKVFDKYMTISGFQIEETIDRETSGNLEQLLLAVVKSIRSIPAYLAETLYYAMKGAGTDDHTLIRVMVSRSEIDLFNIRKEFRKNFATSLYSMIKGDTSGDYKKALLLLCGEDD

T4: His6-ANXA5 (UniProt P08758 1-320, limits assumed)
T4 construct: also called ANXAS (so in the source); control His6-ANXAS; not shown: His6 tag
T4 sequence (looked up): T3 sequence (P08758 1-320)

B1: GST-prohibitin (other, UniProt P35232 1-272, looked up)
chain: T1 sequence (P35232 1-272)
notes: Gift from Dr. Srikumar Chellappan; also called recombinant GST-prohibitin; glutathione S-transferase (GST)-conjugated protein; not shown: glutathione S-transferase (GST) tag
B2: negative control peptide CARAC (peptide)
peptide: Biotin-CARAC
modifications: also: cyclized, type and places not given here
notes: Negative control on monoavidin beads; also called control elution peptide
B3: human leukocyte proteinase-3 (PR-3) (enzyme)
chain: IVGGHEAQPHSRPYMASLQMRGNPGSHFCGGTLIHPSFVLTAPHCLRDIPQRLVNVVLGAHNVRTQEPTQQHFSVAQVFLNNYDAENKLNDILLIQLSSPANLSASVTSVQLPQQDQPVPPHGTQCLAMGWGRVGAHDPPAQVLQELNVTVVTFFCRPHNICTFVPRRKAGICCFGDSGGPLICDGIIQGIDSFVIWGCATRLFPDFFTRVAYDWIRSTLR
notes: In the ELISAs the PR-3 was bought (Sigma); also called active PR-3; endogenous PR-3

Key:
[1] = target: T1, prohibitin; assay: Phage binding assay on immobilized prohibitin; settings: increasing concentrations of synthetic peptide (FIG. 3B)
Protocol: (§1) Phage Binding Assays. Binding of targeted phage to immobilized candidate receptors was evaluated as described (Kolonin et al., 2006b). Micro-wells of 96-well plates were blocked with phosphate-buffered saline (PBS) containing 3% BSA, washed, and incubated with 10^9 TU of targeted phage. Inhibition of phage binding was performed in the presence of increasing concentrations of synthetic peptides, as indicated. For phage display screening on immobilized prohibitin, 10^9 TU of phage clones recovered from the second round of in vivo selection were incubated ON with 1 μg of immobilized recombinant GST-prohibitin. Bound phage were recovered by infection of host bacteria (E. coli K91 Kan).

[2] = test system: cells of mouse WAT vasculature; settings: previous research (Kolonin et al., 2004); cited from earlier work
[3] = target: T2, PR-3; assay: Phage binding competition assay, targeted phage and cognate synthetic peptide; settings: FIG. 4E
Protocol: as §1

[4] = target: T5, ANXA2 (Homo sapiens, UniProt P07355); assay: Capture of GST-prohibitin with immobilized His6-ANXA2; format: binding; settings: recombinant GST-conjugated protein (FIG. 3E)
T5 construct: purchased AmProx
Protocol: (§2) Protein Binding Assays. Titration of anti-peptide antibodies was performed on Maxisorb Immunoplates (Nunc) coated with 1 μg/mL of peptides or proteins. Incubation with primary antibodies was followed by signal detection with goat anti-rabbit HRP-conjugated IgG (Sigma-Aldrich; St. Louis, Mo.) and 3, 3′,5,5′-tetramethylbenzidine (TMB) (Calbiochem). To evaluate protein-protein interactions, the inventors performed ELISA on 96-well plates coated with 1 μg/mL of recombinant candidate receptors, as indicated. Blocking of exposed non-specific binding sites was performed with PBS containing either 2% gelatin or 1% BSA, as indicated. Ligand candidates were added to the wells at different concentrations, as indicated. Specific binding was detected by incubation with appropriate primary and secondary antibodies. For capture experiments, immobilized His6-ANXA2 and ANXAS were incubated with recombinant GST-prohibitin. Protein interaction, assessed by immunoblotting with anti-GST antibody, was detected with anti-rabbit or anti-goat secondary alkaline phosphatase-conjugated polyclonal antibodies.

[5] = target: T3, ANXAS; assay: Capture of GST-prohibitin with immobilized control His6-ANXAS; format: binding; settings: recombinant GST-conjugated protein (FIG. 3E)
Protocol: as §2

[6] = target: T4, His6-ANXA5; assay: capture of GST-prohibitin on immobilized His6-annexin, immunoblot with anti-GST antibody
[7] = target: B3; assay: affinity capture on monoavidin beads loaded with biotinylated peptide, from a membrane extract of human bone marrow cells; SDS-PAGE
From the text: (B) Liquid chromatography-mass spectrometry (LC-MS/MS) of peptides matching the candidate receptor PR-3. Peptides identified are underlined. […] Arrow: ˜35 kDa band specific to the RAGE-like peptides.

[8] = target: T6, BMPRIA-Fc (UniProt P36894 24-152); assay: ELISA on immobilized PR-3
T6 construct: Bought (R&D Systems); control protein; also called Fc-BMPRIA; not shown: Fc tag

[9] = target: T7, BSA (bovine, UniProt P02769 25-607); assay: ELISA on immobilized PR-3
T7 construct: Control protein added to immobilized PR-3; also called bovine serum albumin; control protein
T7 sequence (P02769 25-607 limits assumed): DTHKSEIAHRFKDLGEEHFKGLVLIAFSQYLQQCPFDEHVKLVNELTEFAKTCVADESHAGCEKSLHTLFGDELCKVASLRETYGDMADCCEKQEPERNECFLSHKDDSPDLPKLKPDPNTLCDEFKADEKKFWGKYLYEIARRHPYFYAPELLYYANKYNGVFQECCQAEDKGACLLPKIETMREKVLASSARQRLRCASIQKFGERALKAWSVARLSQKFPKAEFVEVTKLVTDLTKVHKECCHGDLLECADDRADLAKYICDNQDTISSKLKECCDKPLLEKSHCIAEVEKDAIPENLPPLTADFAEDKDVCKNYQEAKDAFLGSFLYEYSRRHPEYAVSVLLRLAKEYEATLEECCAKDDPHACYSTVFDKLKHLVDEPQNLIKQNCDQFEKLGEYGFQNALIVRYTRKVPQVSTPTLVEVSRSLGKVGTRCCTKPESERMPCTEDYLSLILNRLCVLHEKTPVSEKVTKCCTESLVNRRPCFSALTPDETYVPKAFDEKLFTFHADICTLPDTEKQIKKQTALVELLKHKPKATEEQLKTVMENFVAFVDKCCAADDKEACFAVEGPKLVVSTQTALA

T5 sequence (P07355 whole entry): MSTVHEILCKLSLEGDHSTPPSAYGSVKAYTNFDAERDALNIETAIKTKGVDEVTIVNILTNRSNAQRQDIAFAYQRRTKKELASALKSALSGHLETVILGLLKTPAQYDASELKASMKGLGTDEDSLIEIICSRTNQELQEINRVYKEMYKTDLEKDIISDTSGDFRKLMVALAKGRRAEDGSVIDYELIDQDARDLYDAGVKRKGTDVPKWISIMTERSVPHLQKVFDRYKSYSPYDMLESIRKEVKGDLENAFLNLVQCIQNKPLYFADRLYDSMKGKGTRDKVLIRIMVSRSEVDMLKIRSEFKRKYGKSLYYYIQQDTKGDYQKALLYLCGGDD
T6 sequence (P36894 24-152): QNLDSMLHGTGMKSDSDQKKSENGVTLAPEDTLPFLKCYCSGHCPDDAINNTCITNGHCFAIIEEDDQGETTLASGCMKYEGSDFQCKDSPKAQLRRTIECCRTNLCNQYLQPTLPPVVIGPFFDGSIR

CKGGRAKDC
inhibition of CKGGRAKDC-displaying phage binding to prohibitin by synthetic peptide [1]: specifically inhibited in a concentration-dependent manner
localization and internalization in WAT vasculature [2]: localized to and internalized by cells of mouse WAT vasculature

CWELGGGPC
inhibition of CWELGGGPC-phage binding by synthetic peptide [3]: specifically inhibited

prohibitin: recombinant glutathione S-transferase (GST)-conjugated prohibitin
binding of prohibitin to ANXA2 [4]: binds to ANXA2
binding of prohibitin to control protein ANXAS [5]: not to the control protein ANXAS

B1
binding result [6]: no binding

B2
binding result [7]: no binding

B3
binding result [8]: no binding
binding result [9]: no binding
